Measured values: article PMC4347018

Assays:
[1] = target: Cytolysin A (ClyA) wild type, N-terminally His6-tagged (E. coli) (UniProt P77335); experiment: FRET or BRET + cross-linking; rate coefficient of pore closure in the non-sequential assembly model fitted to the single-molecule FRET data, set so that the predicted formation of complete pores matches the cross-linking data (500 nM ClyAwt, 0.1% DDM, 22 °C)
[2] = target: Cytolysin A (ClyA) wild type, N-terminally His6-tagged (E. coli) (UniProt P77335); experiment: FRET or BRET; single-molecule intramolecular FRET of ~100 pM labelled ClyA freely diffusing, with 5 nM to 5 uM unlabelled ClyAwt; assembly triggered with 0.1% (w/v) DDM by manual mixing; 22 °C; 20 mM potassium phosphate pH 7.3, 150 mM NaCl, 0.001% Tween-20, 10 mM DTT; global fit of the histogram time series with the non-sequential assembly model (irreversible steps)

Row | Substance | k6 (association rate coefficient of pore closure, two oligomers to the complete pore) [1] | k5 (association rate coefficient of all oligomerization steps that lead to incomplete pores) [2]
1 | Cytolysin A (ClyA) wild type, N-terminally His6-tagged (from UniProt P77335 2-303) (natural protein) | > 1e+07 M⁻¹ s⁻¹ | –
2 | ClyA Q56C/E252C labelled with Alexa Fluor 488 at Cys56 and Alexa Fluor 594 at Cys252 (from UniProt P77335 2-303) (natural protein) | – | 102000 M⁻¹ s⁻¹
